Measurements reported in paper PMC3128695, “A Lower-Order Oligomer Form of Phage Shock Protein A (PspA) Stably Associates with the Hexameric AAA^+ Transcription Activator Protein PspF for Negative Regulation” (Journal of Molecular Biology, 2009).

Molecular target: the molecule itself
Assay: SEC; single proteins alone: 50-μl samples of 30 μM PspAFL or PspA fragments (20 μM PspF1–275), Superose 6, 4 °C, 20 mM Tris–HCl pH 8.0, 50 mM NaCl, 15 mM MgCl2; apparent oligomeric forms from calibration with globular proteins

| Protein | stoichiometry N |
| --- | --- |
| His-PspA(68–110) (HD2) (domain or fragment, PspA, E. coli, residues 68-110 (HD2); Cloned NdeI-BamHI into pET28b+, which should give an N-terminal His tag as for the other fragments (surmised); a start codon was added by the forward primer; source: pET28b+-based plasmid pGJ52) not shown | 2 subunits |
| His-PspA(1–110) (HD1–HD2) (domain or fragment) not shown | 2 subunits |
| His-PspA(68–186) (HD2–HD3) (domain or fragment) not shown | 6 subunits |
| His-PspA(68–222) (HD2–HD3–HD4) (domain or fragment) not shown | 6 subunits |
